Results on 26 substances are retold here after US20130011427A1 (priority 2009, published 2013).

In experiment [1] the test system is HLA-B7 (HLA-B*0702) Tg mice, CD4-depleted splenocytes. The experiment is classed as cell-based, mouse.
The subject of experiment [2] is HLA-A24/huCD8α (HLA-A*2402) Tg mice, CD4-depleted splenocytes. The experiment is classed as cell-based, mouse.
Experiment [3] deals with HLA-DR4/huCD4 (DRB1*0401) Tg mice, CD8-depleted splenocytes. The experiment is classed as cell-based, mouse.
The subject of experiment [4] is HLA-DR2 (DRB1*1501) Tg mice, CD8-depleted splenocytes. The experiment is classed as cell-based, mouse.
Experiment [5] has as its system HLA-DR3 (DRB1*0301) Tg mice, CD8-depleted splenocytes. Type of experiment: cell-based, mouse.
Experiment [6] relates to HLA-A2.1 (HLA-A*0201) Tg mice, CD4-depleted splenocytes. Type of experiment: cell-based, mouse.
In experiment [7] the target is HLA-B7 (chimeric HLA-B*0702 / H-2K^d heavy chain) (human; murine) (UniProt P01902). The experiment is described as follows: cell-based or functional assay.
UniProt P01902, sequence (P01902 whole entry, change not shown): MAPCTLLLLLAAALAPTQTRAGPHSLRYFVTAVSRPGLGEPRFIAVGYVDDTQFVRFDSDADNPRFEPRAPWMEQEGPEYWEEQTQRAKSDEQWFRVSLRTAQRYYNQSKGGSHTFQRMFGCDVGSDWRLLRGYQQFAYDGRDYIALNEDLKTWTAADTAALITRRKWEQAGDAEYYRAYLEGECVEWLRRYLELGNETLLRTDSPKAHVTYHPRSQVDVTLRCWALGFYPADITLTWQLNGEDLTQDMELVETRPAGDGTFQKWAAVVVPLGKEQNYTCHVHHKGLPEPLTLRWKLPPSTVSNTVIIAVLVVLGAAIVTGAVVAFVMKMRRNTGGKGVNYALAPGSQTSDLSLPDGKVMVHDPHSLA
The target of experiment [8] is HLA-A2.1 (HHD monochain) (human; murine). The experiment is described as follows: cell-based or functional assay.
Experiment [9] deals with HLA-A24 (HLA-A*2402 with human β2-microglobulin) (human). The experiment is described as follows: cell-based or functional assay.
In experiment [10] the target is HLA-DR4 (HLA-DRA*0101 / HLA-DRB1*0401) (human). The experiment is described as follows: cell-based or functional assay.
The target of experiment [11] is HLA-DR2 (chimeric HLA-DRA1*0101/DRB1*1501 with I-E domains) (human; murine) (UniProt Q8BHN5). The experiment is described as follows: cell-based or functional assay.
UniProt Q8BHN5, sequence (Q8BHN5 whole entry, stated change not applied): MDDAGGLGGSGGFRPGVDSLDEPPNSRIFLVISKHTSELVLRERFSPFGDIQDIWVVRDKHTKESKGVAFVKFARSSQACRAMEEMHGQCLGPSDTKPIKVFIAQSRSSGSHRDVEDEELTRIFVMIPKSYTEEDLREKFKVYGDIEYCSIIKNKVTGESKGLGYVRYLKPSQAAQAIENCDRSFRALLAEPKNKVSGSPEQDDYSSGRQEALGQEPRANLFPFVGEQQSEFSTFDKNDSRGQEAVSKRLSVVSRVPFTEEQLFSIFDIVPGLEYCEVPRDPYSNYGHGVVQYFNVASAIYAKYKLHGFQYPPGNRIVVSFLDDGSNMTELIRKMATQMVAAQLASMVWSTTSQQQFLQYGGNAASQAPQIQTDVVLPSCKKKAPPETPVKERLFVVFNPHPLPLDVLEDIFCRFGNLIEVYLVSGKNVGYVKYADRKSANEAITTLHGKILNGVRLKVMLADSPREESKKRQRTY
Experiment [12] concerns the target HLA-DR3 (HLA-DRA*0101 / HLA-DRB1*0301) (human). The experiment is described as follows: cell-based or functional assay.

Turning to CDIGESSSSAEVEEHRTI [NS5 145-162], the “T cell activation of HLA transgenic mice (SFC/10^6) IFN-γ ELISpot, B7” value (“T cell activation of HLA transgenic mice … B7” for short) in experiment [1] amounted to 50 ± 22 SFC/10^6.
Consider GGVLWDTPSPKEYKK [NS3 1-15], for which the “T cell activation of HLA transgenic mice … B7” value in experiment [1] is on record as 45 ± 12 SFC/10^6.
The same measure, in the same setting: then GKSRAVNMLKRGMPRVL [C 9-25], with 43 ± 17 SFC/10^6.
With ISAYTPWAILPSVVGFWI [NS2b 107-124], the “T cell activation of HLA transgenic mice (SFC/10^6) IFN-γ ELISpot, A24” value (“T cell activation of HLA transgenic mice … A24” below) in [2] turned out to be 50 ± 11 SFC/10^6. Moreover, the “T cell activation of HLA transgenic mice … B7” value in [1] stood at 81 ± 8 SFC/10^6. In experiment [3], the “T cell activation of HLA transgenic mice (SFC/10^6) IFN-γ ELISpot, DR4” value (from here on “T cell activation of HLA transgenic mice … DR4”) was 163 ± 4 SFC/10^6.
In the case of LRNPGYALVAAVIGWML [prM 129-145], the “T cell activation of HLA transgenic mice … A24” value in experiment [2] is reported as 71 ± 38 SFC/10^6. Further, in [1], the “T cell activation of HLA transgenic mice … B7” value is reported as 31 ± 7 SFC/10^6. Further, the “T cell activation of HLA transgenic mice (SFC/10^6) IFN-γ ELISpot, DR2” value (shortened to “T cell activation of HLA transgenic mice … DR2”) in [4] was 62 ± 11 SFC/10^6.
Consider MLGSNTMQRVVFVVLLLL [prM 144-161], for which the “T cell activation of HLA transgenic mice … A24” value in experiment [2] came out at 59 ± 18 SFC/10^6. In [3], the “T cell activation of HLA transgenic mice … DR4” value is 315 ± 157 SFC/10^6. For the same substance, in experiment [5], the “T cell activation of HLA transgenic mice (SFC/10^6) IFN-γ ELISpot, DR3” value came to 134 ± 35 SFC/10^6. In experiment [4], the “T cell activation of HLA transgenic mice … DR2” value worked out at 84 ± 32 SFC/10^6.
As for PAAPSYTLKLGEYGEVTV [E 171-188], the “T cell activation of HLA transgenic mice (SFC/10^6) IFN-γ ELISpot, A2” value in [6] is recorded as 279 ± 217 SFC/10^6. Also, in [1], the “T cell activation of HLA transgenic mice … B7” value amounted to 996 ± 100 SFC/10^6.
SAEVEEHRTIRVLEMV [NS5 153-168]: in experiment [6], the “T cell activation of HLA transgenic mice (SFC/10^6) IFN-γ ELISpot, A2” value amounted to 332 ± 52 SFC/10^6. Further, in [1], the “T cell activation of HLA transgenic mice … B7” value worked out at 112 ± 72 SFC/10^6. Also, in experiment [4], the “T cell activation of HLA transgenic mice … DR2” value was determined as 250 ± 24 SFC/10^6.
Turning to TFLVHREWFMDLNLPW [E 210-225], in experiment [6], the “T cell activation of HLA transgenic mice (SFC/10^6) IFN-γ ELISpot, A2” value came out at 323 ± 175 SFC/10^6. For the same substance, the “T cell activation of HLA transgenic mice … B7” value in experiment [1] was determined as 519 ± 477 SFC/10^6.
Regarding WMEDKTPVEKWSDVPY [NS5 828-843], the “T cell activation of HLA transgenic mice … B7” value in [1] is 39 ± 14 SFC/10^6.
Substance WNV C 9-25 peptide came in with an IFN-γ ELISpot (SFC/10^6) in experiment [7] of 43 SFC/10^6.
Take WNV E 171-188 peptide: the values for the IFN-γ ELISpot (SFC/10^6) in experiment [7] and in experiment [8] were 996 SFC/10^6 and 279 SFC/10^6, respectively.
As to WNV E 195-212 peptide, the IFN-γ ELISpot (SFC/10^6) in [9] was found to be 137 SFC/10^6; in experiment [10], 53 SFC/10^6.
As for WNV E 210-225 peptide, the IFN-γ ELISpot (SFC/10^6) in experiment [7] was determined as 519 SFC/10^6; in [8], 323 SFC/10^6.
As for WNV NS2a 45-61 peptide, the IFN-γ ELISpot (SFC/10^6) in experiment [9] came to 243 SFC/10^6; in [10], 74 SFC/10^6; in experiment [11], 307 SFC/10^6.
As for WNV NS2b 107-124 peptide, the IFN-γ ELISpot (SFC/10^6) is 50 SFC/10^6 in experiment [9], 163 SFC/10^6 in [10] and 81 SFC/10^6 in [7].
For the substance WNV NS3 1-15 peptide, the IFN-γ ELISpot (SFC/10^6) in experiment [7] worked out at 45 SFC/10^6.
WNV NS4a 86-103 peptide: the IFN-γ ELISpot (SFC/10^6) in [9] was 65 SFC/10^6; in [10] it was 63 SFC/10^6.
As for WNV NS5 145-162 peptide, the IFN-γ ELISpot (SFC/10^6) in [7] turned out to be 50 SFC/10^6.
Consider WNV NS5 153-168 peptide, for which the IFN-γ ELISpot (SFC/10^6) in experiment [7] worked out at 112 SFC/10^6; in [11] it was 250 SFC/10^6; in [8], 332 SFC/10^6.
WNV NS5 470-486 peptide: in experiment [9], the IFN-γ ELISpot (SFC/10^6) came out at 183 SFC/10^6.
With WNV NS5 763-780 peptide, the values for the IFN-γ ELISpot (SFC/10^6) in [10] and in experiment [7] were 91 SFC/10^6 and 36 SFC/10^6, respectively.
In turn, WNV NS5 828-843 peptide showed an IFN-γ ELISpot (SFC/10^6) in experiment [7] of 39 SFC/10^6.
Take WNV NS5 863-879 peptide: the IFN-γ ELISpot (SFC/10^6) was found to be 79 SFC/10^6 in [9], 121 SFC/10^6 in experiment [12] and 33 SFC/10^6 in experiment [10].
As to WNV prM 129-145 peptide, the IFN-γ ELISpot (SFC/10^6) in experiment [9] turned out to be 71 SFC/10^6; in experiment [7], 31 SFC/10^6; in experiment [11] it was 62 SFC/10^6.
Regarding YAQMWLLLYFHRRDLRLM [NS5 763-780], the “T cell activation of HLA transgenic mice … B7” value in experiment [1] stood at 36 ± 16 SFC/10^6. Further, the “T cell activation of HLA transgenic mice … DR4” value in [3] was 91 ± 32 SFC/10^6.
